Data reported in patent US20050100554A1 (published 2005).

T1: PTPN2 (human, UniProt P17706 1-415)
T1 construct: also called cbe_2576474
T1 sequence (looked up): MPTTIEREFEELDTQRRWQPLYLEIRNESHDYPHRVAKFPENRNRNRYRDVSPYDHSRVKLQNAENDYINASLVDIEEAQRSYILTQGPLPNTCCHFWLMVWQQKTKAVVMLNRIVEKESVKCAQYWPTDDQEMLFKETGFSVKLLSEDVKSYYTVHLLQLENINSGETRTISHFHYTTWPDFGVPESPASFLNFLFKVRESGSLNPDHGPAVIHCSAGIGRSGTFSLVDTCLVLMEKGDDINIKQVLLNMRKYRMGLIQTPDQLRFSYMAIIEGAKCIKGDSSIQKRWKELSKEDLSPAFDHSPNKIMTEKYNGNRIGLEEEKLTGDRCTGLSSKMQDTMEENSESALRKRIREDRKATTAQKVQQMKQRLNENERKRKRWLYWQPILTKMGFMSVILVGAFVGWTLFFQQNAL

T2: STX4A (human, UniProt Q12846 1-297)
T2 construct: also called syntaxin 4; cbe_4270186
T2 sequence: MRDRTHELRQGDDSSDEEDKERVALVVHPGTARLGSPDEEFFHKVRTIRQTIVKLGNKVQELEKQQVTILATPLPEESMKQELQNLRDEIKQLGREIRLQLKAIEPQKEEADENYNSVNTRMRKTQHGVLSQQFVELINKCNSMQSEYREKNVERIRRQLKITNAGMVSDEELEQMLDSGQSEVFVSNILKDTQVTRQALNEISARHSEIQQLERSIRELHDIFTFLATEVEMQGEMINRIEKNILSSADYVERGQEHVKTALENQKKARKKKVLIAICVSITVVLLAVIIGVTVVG

T3: steroid receptor RNA activator 1 (human, UniProt Q9HD15 1-224)
T3 construct: also called SRA1; cbe_4344185
T3 sequence: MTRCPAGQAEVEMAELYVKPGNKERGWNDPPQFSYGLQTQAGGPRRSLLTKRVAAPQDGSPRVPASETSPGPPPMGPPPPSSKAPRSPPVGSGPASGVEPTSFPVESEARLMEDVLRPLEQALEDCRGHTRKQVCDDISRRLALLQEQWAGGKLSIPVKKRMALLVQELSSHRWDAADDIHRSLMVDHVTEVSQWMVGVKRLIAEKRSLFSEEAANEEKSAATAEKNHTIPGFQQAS

T4: SCO1 (human, UniProt O75880 68-301)
T4 construct: also called cbe_1699351
T4 sequence: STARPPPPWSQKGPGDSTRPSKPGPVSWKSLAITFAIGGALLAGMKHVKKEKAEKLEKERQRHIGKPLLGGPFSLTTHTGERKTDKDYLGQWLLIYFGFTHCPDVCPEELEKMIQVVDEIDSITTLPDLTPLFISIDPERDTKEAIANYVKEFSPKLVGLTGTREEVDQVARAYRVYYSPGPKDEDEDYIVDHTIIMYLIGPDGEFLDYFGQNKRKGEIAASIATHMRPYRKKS

T5: Human Papillomavirus 1a L1 (Human Papillomavirus 1a, UniProt P03099 1-508)
T5 construct: also called HPV 1a L1; cbe_252016
T5 sequence: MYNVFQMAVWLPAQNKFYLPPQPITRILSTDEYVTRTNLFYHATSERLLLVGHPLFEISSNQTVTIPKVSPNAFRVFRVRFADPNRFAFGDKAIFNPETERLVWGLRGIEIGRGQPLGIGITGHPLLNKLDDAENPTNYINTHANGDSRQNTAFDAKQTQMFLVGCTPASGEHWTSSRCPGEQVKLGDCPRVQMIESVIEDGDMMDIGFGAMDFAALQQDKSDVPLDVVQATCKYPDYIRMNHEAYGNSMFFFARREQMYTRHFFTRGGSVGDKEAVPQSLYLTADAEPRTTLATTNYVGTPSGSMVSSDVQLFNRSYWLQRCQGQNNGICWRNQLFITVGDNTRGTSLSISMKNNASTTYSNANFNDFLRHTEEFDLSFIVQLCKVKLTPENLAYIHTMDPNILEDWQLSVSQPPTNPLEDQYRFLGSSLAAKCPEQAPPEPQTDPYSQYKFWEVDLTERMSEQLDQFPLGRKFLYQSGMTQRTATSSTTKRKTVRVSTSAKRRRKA

T6: KRT8 (human, UniProt P05787 1-483)
T6 construct: also called cbe_4269571
T6 sequence: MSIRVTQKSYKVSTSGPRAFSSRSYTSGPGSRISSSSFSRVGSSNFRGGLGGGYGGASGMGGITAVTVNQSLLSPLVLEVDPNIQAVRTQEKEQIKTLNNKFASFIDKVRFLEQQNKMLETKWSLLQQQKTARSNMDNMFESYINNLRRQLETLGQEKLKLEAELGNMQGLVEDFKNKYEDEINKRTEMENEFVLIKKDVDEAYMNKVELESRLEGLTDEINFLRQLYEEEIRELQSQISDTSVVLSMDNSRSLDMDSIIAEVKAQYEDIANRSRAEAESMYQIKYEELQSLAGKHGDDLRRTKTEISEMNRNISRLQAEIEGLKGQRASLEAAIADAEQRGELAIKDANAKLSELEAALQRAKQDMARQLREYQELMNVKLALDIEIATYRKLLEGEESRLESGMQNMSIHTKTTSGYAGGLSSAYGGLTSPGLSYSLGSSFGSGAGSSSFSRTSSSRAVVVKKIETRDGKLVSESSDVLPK

B1: Human papillomavirus 16 E6 (other)
chain: MHQKRTAMFQDPQERPRKLPQLCTELQTTIHDIILECVYCKQQLLRREVYDFAFRDLCIVYRDGNPYAVCDKCLKFYSKISEYRHYCYSLYGTTLEQQYNKPLCDLLIRCINCQKPLCPEEKQRHLDKKQRFHNIRGRWTGRCMSCCRSSRTRRETQL
notes: also called HPV 16 E6; HPV16 E6
B2: Human papillomavirus 11 E4 (other)
chain: MVVPIIGKYVMAAQLYVLLHLYLALYEKYPLLNLLHTPPHRPPPLQCPPAPRKTACRRRLGSEHVDRPLTTPCVWPTSDPWTVQSTTSSLTITTSTKEGTTVTVQLRL
notes: also called HPV 11 E4; cbe_250777
B3: SCGB1A1 (other)
chain: EICPSFQRVIETLLMDTPSSYEAAMELFSPDQDMREAGAQLKKLVDTLPQKPRESIIKLMEKIAQSSLCN
notes: also called cbe_4296923
B4: Human papillomavirus 11 E2 (other)
chain: MEAIAKRLDACQDQLLELYEENSIDIHKHIMHWKCIRLESVLLHKAKQMGLSHIGLQVVPPLTVSETKGHNAIEMQMHLESLAKTQYGVEPWTLQDTSYEMWLTPPKRCFKKQGNTVEVKFDGCEDNVMEYVVWTHIYLQDNDSWVKVTSSVDAKGIYYTCGQFKTYYVNFNKEAQKYGSTNHWEVCYGSTVICSPASVSSTVREVSIAEPTTYTPAQTTAPTVSACTTEDGVSAPPRKRARGPSTNNTLCVANIRSVDSTINNIVTDNYNKHQRRNNCHSAATPIVQLQGDSNCLKCFRYRLNDKYKHLFELASSTWHWASPEAPHKNAIVTLTYSSEEQRQQFLNSVKIPPTIRHKVGFMSLHLL
notes: also called HPV 11 E2; cbe_250781
B5: isovaleryl Coenzyme A dehydrogenase (enzyme)
chain: HSLLPVDDAINGLSEEQRQLRQTMAKFLQEHLAPKAQEIDRSNEFKNLREFWKQLGNLGVLGITAPVQYGGSGLGYLEHVLVMEEISRASGAVGLSYGAHSNLCINQLVRNGNEAQKEKYLPKLISGEYIGALAMSEPNAGSDVVSMKLKAEKKGNHYILNGNKFWITNGPDADVLIVYAKTDLAAVPASRGITAFIVEKGMPGFSTSKKLDKLGMRGSNTCELIFEDCKIPAANILGHENKGVYVLMSGLDLERLVLAGGPLGLMQAVLDHTIPYLHVREAFGQKIGHFQLMQGKMADMYTRLMACRQYVYNVAKACDEGHCTAKDCAGVILYSAECATQVALDGIQCFGGNGYINDFPMGRFLRDAKLYEIGAGTSEVRRLVIGRAFNADFH
notes: also called IVD; cbe_3800240
B6: hypothetical gene supported by AL449243 (other)
chain: MASGAARWLVLAPVRSGALRSGPSLRKDGDVSAAWSGSGRSLVPSGSVIVTRSGAILPKPVKMSFGLLRVFSIVIPFLYVGTLISKNFAALLEEHDIFVPEDDDDDD
notes: also called Hs.306083; LOC91689
B7: NR1H2 (receptor)
chain: MSSPTTSSLDTPLPGNGPPQPGAPSSSPTVKEEGPEPWPGGPDPDVPGTDEASSACSTDWVIPDPEEEPERKRKKGPAPKMLGHELCRVCGDKASGFHYNVLSCEGCKGFFRRSVVRGGARRYACRGGGTCQMDAFMRRKCQQCRLRKCKEAGMREQCVLSEEQIRKKKIRKQQQESQSQSQSPVGPQGSSSSASGPGASPGGSEAGSQGSGEGEGVQLTAAQELMIQQLVAAQLQCNKRSFSDQPKVTPWPLGADPQSRDARQQRFAHFTELAIISVQEIVDFAKQVPGFLQLGREDQIALLKASTIEIMLLETARRYNHETECITFLKDFTYSKDDFHRAGLQVEFINPIFEFSRAMRRLGLDDAEYALLIAINIFSADRPNVQEPGRVEALQQPYVEALLSYTRIKRPQDQLRFPRMLMKLVSLRTLSSVHSEQVFALRLQDKKLPPLLSEIWDVHE
notes: also called cbe_4268726

Legend:
RPS26 = molecular target: T7, RPS26 (human, UniProt P62854 2-115); assay: Y2H; INT ID 99
T7 construct: also called cbe_4270015

PTPN2 = molecular target: T1, PTPN2; assay: Y2H; INT ID 160
STX4A = molecular target: T2, STX4A; assay: Y2H (told in text)
PSMC1 = molecular target: T8, PSMC1 (human, UniProt P62191 2-440); assay: Y2H (told in text)
T8 construct: also called proteosome 26S subunit; proteosome subunit PMSC1

MT2A = molecular target: T9, MT2A (human, UniProt P02795 1-61); assay: Y2H; INT ID 5
T9 construct: also called cbe_862174

[1] = molecular target: T3, steroid receptor RNA activator 1; assay: Y2H; INT ID 7
SCO1 = molecular target: T4, SCO1; assay: Y2H; INT ID 6
[2] = molecular target: T5, Human Papillomavirus 1a L1; assay: Y2H; INT ID 440
KRT8 = molecular target: T6, KRT8; assay: Y2H; INT ID 16
[3] = molecular target: T5, Human Papillomavirus 1a L1; assay: Y2H; INT ID 438
[4] = molecular target: B4; assay: Y2H; INT ID 14
[5] = molecular target: T5, Human Papillomavirus 1a L1; assay: Y2H; INT ID 439

T8 sequence (P62191 2-440 limits assumed): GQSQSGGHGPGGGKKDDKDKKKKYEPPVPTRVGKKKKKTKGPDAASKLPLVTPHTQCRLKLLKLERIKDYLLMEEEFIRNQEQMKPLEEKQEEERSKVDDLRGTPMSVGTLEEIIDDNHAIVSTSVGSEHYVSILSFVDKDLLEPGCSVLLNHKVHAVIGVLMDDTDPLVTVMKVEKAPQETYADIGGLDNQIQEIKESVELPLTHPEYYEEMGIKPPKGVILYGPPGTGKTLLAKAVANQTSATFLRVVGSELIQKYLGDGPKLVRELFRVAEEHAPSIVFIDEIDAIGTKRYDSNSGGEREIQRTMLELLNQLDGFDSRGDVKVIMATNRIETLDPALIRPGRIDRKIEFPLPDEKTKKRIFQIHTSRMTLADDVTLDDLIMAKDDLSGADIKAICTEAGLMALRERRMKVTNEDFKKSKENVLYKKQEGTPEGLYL
T9 sequence (P02795 whole entry): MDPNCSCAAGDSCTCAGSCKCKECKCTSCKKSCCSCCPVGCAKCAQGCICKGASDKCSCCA

B1: binds (RPS26); binds (PTPN2); binds (STX4A). B1: binds (PSMC1).

B2: binds (MT2A); binds [1]; binds (SCO1).

B3: binds [2].

B4: binds (KRT8).

B5: binds [3].

B6: binds [4].

B7: binds [5].
